From paper PMC6597733, “Characterisation of a solvent-tolerant haloarchaeal (R)-selective transaminase isolated from a Triassic period salt mine” (Applied Microbiology and Biotechnology, 2019)

Substrate: O=C(O)CCC(=O)C(=O)O
Test: purified protein
Assay type: biochemical, Halorubrum sp. CSM-61
Conditions: α-KG varied 1-20 mM, amino donor (R)-methylbenzylamine co-varied at 5 equivalents, 0.5 mM PLP, phosphate pH 8.0, 1 M KCl, 30% DMF, 45 °C per general assay, the varied substrate is named only in Method

B1: BC61-TAm (Halorubrum sp. CSM-61) (protein)
chain: MGFDEMDVDTIWKNGEFLDWEDATTHVLTHALHYGSGVFEGVRCYDTEQGPAVFRWDEHLDRLFDSAKMYDLDIEHSREEITEATMELLRRQDLESCYIRPIAYYGYDSLGVSPKECPTDLVVAAWPWGAYLGEEALEDGVDVMVSSWRKHASSQVPTNVKTTGLYVNSMLAGEEARRNGYVEAIVLNKEGNVAEGPGENVFMVNDGEIYTTGPAQSILEGITRDTVIELAEERGYTVHDEAVVSRGQLYTADELFFTGSAAEVTPIRSVDDTEIGAGTRGPVTEELQSAFFDLVERRTDAHDDWFTYV
notes: full-length gene (930 bp), N-terminal 6xHis tag (pTA1228), expressed in Haloferax volcanii H1424, IMAC purified, 34-35 kDa
- Km: 3.37 mM
- kcat: 0.042 s⁻¹
